Measured values published in the supplement of paper PMC9170038.

System: MS2 coat protein
Assay: apparent KD of MS2 coat protein; higher = weaker reporter binding
Conditions: Eterna round: R107
In short: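 Illumina sequencing clusters were used for on-chip transcription of designed RNA switches. Titration with SNAP-549-labelled MS2 coat protein followed, in twofold steps from 0.7 or 1.5 nM to 3 µM in 100 mM Tris-HCl pH 7.5, 80 mM KCl, 4 mM MgCl2, without or with constant ligand. Apparent KD is each design's median of fits to normalised cluster binding curves.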

[1] = input ligand: theophylline 20 uM
[2] = input ligand: tryptophan 2.4 mM
[3] = input ligand: theophylline 2 mM

Row | Sequence | apparent KD of MS2 coat protein (input ligand: arginine 13.2 mM) [nM] | apparent KD of MS2 coat protein [1] [nM] | apparent KD of MS2 coat protein [2] [nM] | apparent KD of MS2 coat protein (input ligand: none) [nM] | apparent KD of MS2 coat protein [3] [nM]
1 | GGAUAGAUAGGAGAUACCAGAUACAUCAACAUGAGGAUCACCCAUGUGUCUGCACUAAGUGUCCCUUGGCAGCUCGGAGAUCUGA [#16 Same State - Theophylline B] | 24 | 33.7 | 32.4 | – | –
2 | ACAUGAAUAUCAUCUAUUUAUUGUACUGAAGGAGCGUCCAUGAGGACAGGUAGGUCGCAGUGUAAAACAUGAGGAUCACCCAUGU [Same State - Arginine A #1] | 22.6 | 36.6 | 23 | 22.2 | 29
3 | UUCGUAUUGUCGGCCGCCACUGCAACAUGAGGAUCACCCAUGUAAAUUUGGGAGUAGUUAUAUUACAGGACCGGGACAAUAGUAA [JR_ExcTryptoB_Sub019] | 51.8 | 113 | – | – | 140
4 | CUAUAUAUAUCGGCCGCCACUUACUCAUGAGGUAACAACAUGAGGAUCACCCAUGUUUGAGGAUCAAGGACCGGGAUAUAUAUAG [AstrosSSTryB#15] | 31.8 | 33.4 | – | – | 32.6
5 | ACAUGAGGAUCACCCAUGUCAGGGCACGAUACCAGCUGAUCCGGUGGCCCUUGGCAGCGUGACGAGUGGUCAUGAGGAUCACACG [?fmullin] | 75.8 | 176 | 130 | 128 | 158
6 | UGUAUGGACUGAAGGAGCGCCUCAAAAUAACUUGAGGAACACCCAAGUAAGGCGAAAGCCGGGCAGGUAGGUCGCAGUCCAUACU [ArgBX 3] | 31 | 23 | 34.6 | 24.6 | 46.1
7 | UUUACGGGAAACCGAACUAAACAAAGGGAAGGAGCGCCAAACAAGGCAGGUAGGUCGCCCACAUGAGGAUCACCCAUGUGUUGGG [Exclusion Arginine A GF 25] | 32.6 | 67.9 | 53.2 | 60.3 | 64
8 | ACAUGAGGAUCACCCAUGUAACAAACAGAAGGAGCGUGAAAGAACACAGGUAGGUCGCUGAACUUAAUGAAUACUCAUUAGAUCC [JR_Nu_SSArginiA_Sub027] | 13.4 | 18.9 | 14.6 | 14.7 | 15.8
9 | CCAUAAGUACCGGUCCUCAGAUCCUCAUGACGAGGACCGGUACGGCCGCCACUCGAAACAUGAGGAUCACCCAUGUAAUAAUAUU [Brourdmod14] | 19.3 | 45.4 | – | – | 31.1
10 | GUUGAGACCUCGGCCGCCACUCGCCAUGAGGAUCUCCCAUGUAACAUGAGGAUCACCCAUGUACUGAGGACCGGGAGGUCCUAGU [Same State Tryptophan B GF 15] | 17.2 | 34 | 65.6 | 17.4 | 33.5
11 | UAUAUAUAUAUGGAUACCAGCAGAGAAAACGUUUAUCCUAACAUGAGGAUCACCCAUGUAUGCCCUUGGCAGCUGUAUAUAUAUA [8.G] | 21.4 | 29.5 | 24.7 | – | –
12 | ACAUGAGGAUCACCCAUGUACUGGAUCUAACGAGGACCGGUACGGCCGCCACUCGAAGAUAGGACUAUGGAAACAUAGCUUAUCA [Design 1] | 15.3 | 19.9 | 14.6 | 15.3 | 18.4
13 | GCGAUGGAGCGAAGGAGCGUGCUAGUACAUGAGGAUCACCCAUGUGAGUCGCAUCGCUAAGCACAGGUAGGUCGCGCUCCAUCGC [EAB NP+V+V2 #9] | 44.6 | 122 | 87.6 | 94.2 | 145
14 | AUAUAUACAUGAGGAUCACCCAUGUUAUUACGAGGACCGGUACGGCCGCCACUCGAUAGAGUAGAAGUAAAUUGUAAUUCAUGUU [JR_ExcTryptoA_Sub016] | 13.8 | 15.6 | – | – | 11.6
15 | AACGUAUACAGAAGGAGCGUGAUUUGUGUUACUCAUUCAUAUACAUGAGGAUCACCCAUGUCACAGGUAGGUCGCUGUAUUCGUA [JR_ExcArginiB_Sub022] | 39.8 | 128 | 53.8 | 166 | 87.1
16 | AAUAAAUCGCCUGAUACCAGCGCUGGCGGACAUGAGGAUCACCCAUGUGUUACAGGCGGACGCCCUUGGCAGCGGAGCGGGAUCU [U-Shape] | 16.2 | 21.4 | 19.6 | 20.2 | 23
